Strand notation (5' to 3'): a small letter for the sugar, then the base; units joined by * are phosphorothioate-linked, units joined directly phosphodiester-linked; [ ] holds rarer units or linkages, { } end groups; capitals alone tell only the bases. m = 2'-O-methyl; r = 2'-OH (RNA)
Key:
TTR [1] = experiment: EC50 and maximum editing in primary cyno hepatocytes treated with LNP formulated U-depleted Spy Cas9 mRNA and sgRNAs (Tables 20, 22); assay type: cell-based, cynomolgus monkey; design: key: % of sequence reads with indels or substitutions over total reads; conditions: dose response
Description: (§1) Primary liver hepatocytes. Primary human liver hepatocytes (PHH) and primary cynomolgus liver hepatocytes (PCH) (Gibco) were cultured per the manufacturer's protocol (Invitrogen, protocol 11.28.2012). In brief, the cells were thawed and resuspended in hepatocyte thawing medium with supplements (Gibco, Cat. CM7000) followed by centrifugation at 100 g for 10 minutes for human and 80 g for 4 minutes for cyno. The supernatant was discarded and the pelleted cells resuspended in hepatocyte plating medium plus supplement pack (Invitrogen, Cat. A1217601 and CM3000). Cells were counted and plated on Bio-coat collagen I coated 96-well plates (ThermoFisher, Cat. 877272) at a density of 33,000 cells/well for human or 60,000 cells/well for cyno (or 65,000 cells/well when assaying effects on TTR protein, described further below). Plated cells were allowed to settle and adhere for 6 or 24 hours in a tissue culture incubator at 37° C. and 5% CO2 atmosphere. After incubation cells were checked for monolayer formation and media was replaced with hepatocyte culture medium with serum-free supplement pack (Invitrogen, Cat. A1217601 and CM4000).
For LNPs prepared using the cross-flow technique, the LNPs were formed by impinging jet mixing of the lipid in ethanol with two volumes of RNA solutions and one volume of water. The lipid in ethanol is mixed through a mixing cross with the two volumes of RNA solution. A fourth stream of water is mixed with the outlet stream of the cross through an inline tee. (See WO2016010840 FIG. 2.) The LNPs were held for 1 hour at room temperature, and further diluted with water (approximately 1:1 v/v). Diluted LNPs were concentrated using tangential flow filtration on a flat sheet cartridge (Sartorius, 100 kD MWCO) and then buffer exchanged by diafiltration into 50 mM Tris, 45 mM NaCl, 5% (w/v) sucrose, pH 7.5 (TSS). Alternatively, the final buffer exchange into TSS was completed with PD-10 desalting columns (GE). If required, formulations were concentrated by centrifugation with Amicon 100 kDa centrifugal filters (Millipore). The resulting mixture was then filtered using a 0.2 μm sterile filter. The final LNP was stored at 4° C. or −80° C. until further use.
(§2) To quantitatively determine the efficiency of editing at the target location in the genome, sequencing was utilized to identify the presence of insertions and deletions introduced by gene editing.
(§3) Primers were designed around the target site within the gene of interest (e.g. TTR), and the genomic area of interest was amplified.
(§4) Additional PCR was performed per the manufacturer's protocols (Illumina) to add chemistry for sequencing. The amplicons were sequenced on an Illumina MiSeq instrument. The reads were aligned to a reference genome (e.g., the human reference genome (hg38), the cynomologus reference genome (mf5), the rat reference genome (rn6), or the mouse reference genome (mm10)) after eliminating those having low quality scores. The resulting files containing the reads were mapped to the reference genome (BAM files), where reads that overlapped the target region of interest were selected and the number of wild type reads versus the number of reads which contain an insertion, substitution, or deletion was calculated.
(§5) The editing percentage (e.g., the “editing efficiency” or “percent editing” or “indel frequency”) is defined as the total number of sequence reads with insertions/deletions (“indels”) or substitutions over the total number of sequence reads, including wild type.
Lipid nanoparticle formulations of modified sgRNAs targeting human TTR and the cyno matched sgRNA sequences were tested on primary human hepatocytes and primary cyno hepatocytes in a dose response curve. Primary human and cyno hepatocytes were plated as described in Example 1. Both cell lines were incubated at 37° C., 5% CO2 for 24 hours prior to treatment with LNPs. […]

TTR [2] = experiment: TTR editing in primary human hepatocytes transfected with Spy Cas9 protein and sgRNAs (Table 12); assay type: cell-based; conditions: primary human hepatocytes transfected with Spy Cas9 protein (RNP) and sgRNAs
Description: as §1
Ribonucleotide formation was performed prior to electroporation or transfection of Spy Cas9 protein loaded with guide RNAs (RNPs) onto cells. For dual guide (dgRNAs), individual crRNA and trRNA was pre-annealed by mixing equivalent amounts of reagent and incubating at 95° C. for 2 min and cooling to room temperature. Single guide (sgRNAs) were boiled at 95° C. for 2 min and cooling to room temperature. The boiled dgRNA or sgRNA was incubated with Spy Cas9 protein in Optimem for 10 minutes at room temperature to form a ribonucleoprotein (RNP) complex.
For RNP lipoplex transfections, cells were transfected with Lipofectamine RNAiMAX (ThermoFisher, Cat. 13778150) per the manufacturer's protocol. Cells were transfected with an RNP containing Spy Cas9 (10 nM), individual guide (10 nM), tracer RNA (10 nM), Lipofectamine RNAiMAX (1.0 μL/well) and OptiMem. RNP formation was performed as described above.
Transfected cells were harvested post-transfection at 24, 48, or 72 hours. The genomic DNA was extracted from each well of a 96-well plate using 50 μL/well BuccalAmp DNA Extraction solution (Epicentre, Cat. QE09050) per manufacturer's protocol. All DNA samples were subjected to PCR and subsequent NGS analyses, as described herein.
as §2, §3, §4, §5
Guides in modified sgRNA format targeting human and/or cyno TTR were delivered to primary human hepatocytes and primary cyno hepatocytes as described in Example 1. […]

TTR [3] = experiment: TTR editing in primary cyno hepatocytes electroporated with Spy Cas9 protein and sgRNAs (Tables 14, 15); assay type: cell-based, cynomolgus monkey
Outline: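 Spy Cas9 RNPs with boiled sgRNAs electroporated (Lonza P3 buffer, program EX-147) into primary cynomolgus hepatocytes; harvest at 24, 48 or 72 h. TTR target site PCR-amplified and sequenced on Illumina MiSeq, reads aligned to mf5; percent editing is reads with indels or substitutions over total reads.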

[4] = Table 20, LNP with U-depleted Spy Cas9 mRNA and human specific sgRNAs
[5] = Table 15, primary cyno hepatocytes electroporated with Spy Cas9 protein (RNP) and cyno specific sgRNAs
[6] = Table 14, primary cyno hepatocytes electroporated with Spy Cas9 protein (RNP) and sgRNAs

Row | Molecule | Max Editing (TTR [1]; [4]) | Avg % Deletion (TTR [2]) [%] | Avg % Edit (TTR [2]) [%] | Avg % Insert (TTR [2]) [%] | other results
1 | G000570: TTR sgRNA modified sequence, Human, SEQ ID No. 111; guide sequence of CR003347 (nucleic acid) guide: mC*mA*mU*rUrGrArUrGrGrCrArGrGrArCrUrGrCrCrUrGrUrUrUrUrArGrAmGmCmUmAmGmAmAmAmUmAmGmCrArArGrUrUrArArArArUrArArGrGrCrUrArGrUrCrCrGrUrUrArUrCrAmAmCmUmUmGmAmAmAmAmAmGmUmGmGmCmAmCmCmGmAmGmUmCmGmGmUmGmCmU*mU*mU*mU | 96.73 |  |  |  | 
2 | G000571: TTR sgRNA modified sequence, Human, SEQ ID No. 112; guide sequence of CR005301 (nucleic acid) guide: mG*mU*mC*rArCrArGrArArArCrArCrUrCrArCrCrGrUrGrUrUrUrUrArGrAmGmCmUmAmGmAmAmAmUmAmGmCrArArGrUrUrArArArArUrArArGrGrCrUrArGrUrCrCrGrUrUrArUrCrAmAmCmUmUmGmAmAmAmAmAmGmUmGmGmCmAmCmCmGmAmGmUmCmGmGmUmGmCmU*mU*mU*mU | 97.03 |  |  |  | 
3 | G000568: TTR sgRNA modified sequence, Human, SEQ ID No. 110; guide sequence of CR003391 (nucleic acid) guide: mG*mG*mC*rUrGrUrCrGrUrCrArCrCrArArUrCrCrCrArGrUrUrUrUrArGrAmGmCmUmAmGmAmAmAmUmAmGmCrArArGrUrUrArArArArUrArArGrGrCrUrArGrUrCrCrGrUrUrArUrCrAmAmCmUmUmGmAmAmAmAmAmGmUmGmGmCmAmCmCmGmAmGmUmCmGmGmUmGmCmU*mU*mU*mU | 87.93 |  |  |  | 
4 | G000484: TTR sgRNA modified sequence, Human, SEQ ID No. 91; guide sequence of CR003367 (nucleic acid) guide: mA*mG*mA*rCrArCrCrArArArUrCrUrUrArCrUrGrGrArGrUrUrUrUrArGrAmGmCmUmAmGmAmAmAmUmAmGmCrArArGrUrUrArArArArUrArArGrGrCrUrArGrUrCrCrGrUrUrArUrCrAmAmCmUmUmGmAmAmAmAmAmGmUmGmGmCmAmCmCmGmAmGmUmCmGmGmUmGmCmU*mU*mU*mU | 0.22 | 33.83 | 62.97 | 29.23 | 
5 | G000483: TTR sgRNA modified sequence, Human, SEQ ID No. 90; guide sequence of CR005298 (nucleic acid) guide: mU*mC*mC*rArCrUrCrArUrUrCrUrUrGrGrCrArGrGrArGrUrUrUrUrArGrAmGmCmUmAmGmAmAmAmUmAmGmCrArArGrUrUrArArArArUrArArGrGrCrUrArGrUrCrCrGrUrUrArUrCrAmAmCmUmUmGmAmAmAmAmAmGmUmGmGmCmAmCmCmGmAmGmUmCmGmGmUmGmCmU*mU*mU*mU | 56.52 | 28.50 | 47.90 | 19.57 | 
6 | G000502: TTR Cyno specific sgRNA modified sequence, SEQ ID No. 114; guide sequence of CR000689; cross homologous between mouse and cyno (nucleic acid) guide: mA*mC*mA*rCrArArArUrArCrCrArGrUrCrCrArGrCrGrGrUrUrUrUrArGrAmGmCmUmAmGmAmAmAmUmAmGmCrArArGrUrUrArArArArUrArArGrGrCrUrArGrUrCrCrGrUrUrArUrCrAmAmCmUmUmGmAmAmAmAmAmGmUmGmGmCmAmCmCmGmAmGmUmCmGmGmUmGmCmU*mU*mU*mU |  |  |  |  | Avg % Deletion (TTR [3]; [5]): 81.27%; Avg % Edit (TTR [3]; [5]): 95.10%; Avg % Insert (TTR [3]; [5]): 13.97%; Max Editing (TTR [1]; Table 22, LNP with U-depleted Spy Cas9 mRNA and cyno specific sgRNAs): 100.05
7 | G000494: TTR sgRNA modified sequence, Human, SEQ ID No. 101; guide sequence of CR003360 (nucleic acid) guide: mG*mU*mG*rArGrUrCrUrGrGrArGrArGrCrUrGrCrArUrGrUrUrUrUrArGrAmGmCmUmAmGmAmAmAmUmAmGmCrArArGrUrUrArArArArUrArArGrGrCrUrArGrUrCrCrGrUrUrArUrCrAmAmCmUmUmGmAmAmAmAmAmGmUmGmGmCmAmCmCmGmAmGmUmCmGmGmUmGmCmU*mU*mU*mU | 60.84 | 0.77 | 62.23 | 61.47 | Avg % Deletion (TTR [3]; [6]): 2.07%; Avg % Edit (TTR [3]; [6]): 81.53%; Avg % Insert (TTR [3]; [6]): 79.57%
8 | G000572: TTR sgRNA modified sequence, Human, SEQ ID No. 113; guide sequence of CR003385 (nucleic acid) guide: mC*mC*mC*rCrUrArCrUrCrCrUrArUrUrCrCrArCrCrArGrUrUrUrUrArGrAmGmCmUmAmGmAmAmAmUmAmGmCrArArGrUrUrArArArArUrArArGrGrCrUrArGrUrCrCrGrUrUrArUrCrAmAmCmUmUmGmAmAmAmAmAmGmUmGmGmCmAmCmCmGmAmGmUmCmGmGmUmGmCmU*mU*mU*mU | 100.31 |  |  |  | 

Reference: patent publication US11795460B2, “Compositions and methods for TTR gene editing and treating ATTR amyloidosis” (Intellia Therapeutics, Inc., priority 2017, dated 2023)
